Source: patent publication US20250313644A1 (FUTUREGEN BIOPHARMACEUTICAL BEIJING, published 2025)
Like-named read-outs stand apart in the source and are kept apart here.

Key:
[1] = molecular target: T1, HuTL1A mutant Y238A (mutant number 4134) (human, UniProt O95150 57-251, limits assumed); experiment: BLI (Gator) on antigen mutant Y238A
T1 construct: whole entry named
T1 chain: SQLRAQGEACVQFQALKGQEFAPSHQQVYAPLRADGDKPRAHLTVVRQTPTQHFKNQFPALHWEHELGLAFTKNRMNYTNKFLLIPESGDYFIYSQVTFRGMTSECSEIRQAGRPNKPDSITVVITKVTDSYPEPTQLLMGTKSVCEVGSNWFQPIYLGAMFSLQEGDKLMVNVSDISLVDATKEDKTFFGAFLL

[2] = molecular target: T2, human TL1A (HuTL1A) (human, UniProt O95150 57-251, limits assumed, biotin-labelled in some assays (site not stated)); experiment: ELISA: biotin-HuTL1A on streptavidin plate, antibody diluted at pH 7.4, HRP-anti-human Fc, OD450
T2 construct: Expressed in EXPI-293 cells and purified by Ni-NTA (His-tag); Described as a trimeric antigen; also called TL1A antigen; WT
T2 sequence: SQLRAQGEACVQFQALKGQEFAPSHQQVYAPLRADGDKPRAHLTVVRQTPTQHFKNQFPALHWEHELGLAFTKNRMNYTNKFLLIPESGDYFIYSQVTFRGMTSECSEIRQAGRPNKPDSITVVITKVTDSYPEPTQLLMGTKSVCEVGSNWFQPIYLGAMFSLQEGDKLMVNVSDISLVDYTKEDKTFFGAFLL
Procedure: (§1) Corresponding antibodies were added to specific wells, and the antibodies were diluted with sodium dihydrogen phosphate-citrate buffer at pH 7.4, pH 6.0, pH 5.8, or pH 5.6. Binding assay was carried out at room temperature for 30 minutes. After the incubation, the excess antibodies were removed and the wells were washed by PBST. HRP-anti-Human Fc (Sino Biological) was then added into each well and incubated for 30 minutes to detect the bound antibody. The substrate TMB was finally added to develop color for 5-10 minutes. The color development reaction was terminated with 1M sulfuric acid. OD450 nm was recorded on a microplate reader, and the data were processed and fitted by 4 parameter logistic regression.

[3] = molecular target: T3, HuTL1A mutant E120A (mutant number 4138) (human, UniProt O95150 57-251, limits assumed); experiment: BLI (Gator) on antigen mutant E120A
T3 construct: whole entry named
T3 chain: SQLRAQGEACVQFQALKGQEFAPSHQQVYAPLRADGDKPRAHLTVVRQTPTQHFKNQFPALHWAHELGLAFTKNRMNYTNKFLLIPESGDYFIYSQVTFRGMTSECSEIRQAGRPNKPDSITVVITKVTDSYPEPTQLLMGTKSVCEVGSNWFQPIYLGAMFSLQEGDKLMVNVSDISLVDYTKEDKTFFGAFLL

[4] = molecular target: T4, HuTL1A mutant V102A (mutant number 4139) (human, UniProt O95150 57-251, limits assumed); experiment: BLI (Gator) on antigen mutant V102A
T4 construct: whole entry named
T4 chain: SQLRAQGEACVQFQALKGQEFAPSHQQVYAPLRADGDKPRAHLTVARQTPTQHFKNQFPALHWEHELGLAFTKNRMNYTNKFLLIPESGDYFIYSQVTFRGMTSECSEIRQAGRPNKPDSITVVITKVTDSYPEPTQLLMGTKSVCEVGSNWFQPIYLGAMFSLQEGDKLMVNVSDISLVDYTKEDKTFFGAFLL

[5] = molecular target: T2, human TL1A (HuTL1A); experiment: BLI (Gator), His-tagged TL1A on anti-His probe, pH 7.4
Procedure: (§2) Then a serial dilutions of single-arm M701 antibodies and control antibodies were added.

[6] = molecular target: T5, cynomolgus monkey/rhesus monkey TL1A (cynomolgus monkey/rhesus monkey); experiment: as above
T5 construct: also called Cynomolgus/rhesus monkey TL1A
Procedure: as §2

[7] = molecular target: T6, HuTL1A mutant H118A (mutant number 4137) (human, UniProt O95150 57-251, limits assumed); experiment: BLI (Gator) on antigen mutant H118A
T6 construct: whole entry named
T6 chain: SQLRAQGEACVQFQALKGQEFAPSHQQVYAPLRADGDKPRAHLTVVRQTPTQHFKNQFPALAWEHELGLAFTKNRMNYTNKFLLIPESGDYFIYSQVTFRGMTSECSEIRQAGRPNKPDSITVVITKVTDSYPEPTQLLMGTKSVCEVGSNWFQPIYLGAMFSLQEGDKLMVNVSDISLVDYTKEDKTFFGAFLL

[8] = molecular target: T7, HuTL1A mutant T105A (mutant number 4140) (human, UniProt O95150 57-251, limits assumed); experiment: BLI (Gator) on antigen mutant T105A
T7 construct: whole entry named
T7 chain: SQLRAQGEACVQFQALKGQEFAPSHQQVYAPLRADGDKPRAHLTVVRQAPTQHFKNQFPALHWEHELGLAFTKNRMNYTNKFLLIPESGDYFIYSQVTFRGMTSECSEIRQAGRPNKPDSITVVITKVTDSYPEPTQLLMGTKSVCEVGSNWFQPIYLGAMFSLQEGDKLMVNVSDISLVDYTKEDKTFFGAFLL

[9] = molecular target: T2, human TL1A (HuTL1A); experiment: BLI (Gator), biotin-HuTL1A on SA probe, pH 7.4; BLI (Gator), pH 7.4
Procedure: The binding kinetics between monoclonal antibodies and antigens was measured using Gator, a label-free biomolecule interaction analyzer based on the principle of biolayer interference (BLI). […] Then a serial dilutions of single-arm M701 antibodies and control antibodies were added. The antibodies interacted with the antigen captured by the SA probe, and the interaction was analyzed by detecting the signal change of the reflection interference spectrum of the probe surface, and finally the binding kinetics constants of the antibodies were calculated. The kinetic constants of antigen and antibodies were measured at pH 7.4 and 5.6 in sodium dihydrogen phosphate-citrate buffer.

[10] = molecular target: T2, human TL1A (HuTL1A); experiment: BLI (Gator) on WT antigen (3907)
[11] = molecular target: T2, human TL1A (HuTL1A); experiment: ELISA: biotin-HuTL1A on streptavidin plate, antibody diluted at pH 7.4, HRP-anti-human Fc, OD450; remark: listed apart in the source
Procedure: as §1

[12] = molecular target: T8, HuTL1A mutant K240A (mutant number 4136) (human, UniProt O95150 57-251, limits assumed); experiment: BLI (Gator) on antigen mutant K240A
T8 construct: whole entry named
T8 chain: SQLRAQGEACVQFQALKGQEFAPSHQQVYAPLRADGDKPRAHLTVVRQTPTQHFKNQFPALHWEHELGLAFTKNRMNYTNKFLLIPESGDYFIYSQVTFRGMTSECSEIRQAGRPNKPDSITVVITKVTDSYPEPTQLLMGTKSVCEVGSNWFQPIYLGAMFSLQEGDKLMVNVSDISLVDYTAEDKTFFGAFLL

[13] = molecular target: T9, HuTL1A mutant S234A (mutant number 4133) (human, UniProt O95150 57-251, limits assumed); experiment: BLI (Gator) on antigen mutant S234A
T9 construct: whole entry named
T9 chain: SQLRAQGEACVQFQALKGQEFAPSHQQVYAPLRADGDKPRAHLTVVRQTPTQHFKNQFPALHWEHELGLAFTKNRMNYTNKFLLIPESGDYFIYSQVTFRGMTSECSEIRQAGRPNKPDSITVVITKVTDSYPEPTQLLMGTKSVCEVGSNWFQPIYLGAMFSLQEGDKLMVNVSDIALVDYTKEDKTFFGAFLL

[14] = molecular target: T10, HuTL1A mutant T239A (mutant number 4135) (human, UniProt O95150 57-251, limits assumed); experiment: BLI (Gator) on antigen mutant T239A
T10 construct: whole entry named
T10 chain: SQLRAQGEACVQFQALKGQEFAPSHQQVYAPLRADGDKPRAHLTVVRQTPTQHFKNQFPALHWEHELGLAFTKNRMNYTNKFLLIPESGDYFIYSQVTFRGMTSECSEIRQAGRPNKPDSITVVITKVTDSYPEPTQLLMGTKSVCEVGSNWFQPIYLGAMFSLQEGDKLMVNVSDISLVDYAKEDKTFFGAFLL

Kd [1]: 12100 nM
EC50 (read off the curve) [2]: ~0.6 nM
Kd [3]: 17.3 nM
Kd [4]: 5850 nM
Kd [5]: 5.92 nM
koff [5]: 0.00353 s⁻¹
kon [5]: 596000 M⁻¹ s⁻¹
Kd [6]: 6.09 nM
koff [6]: 0.00375 s⁻¹
kon [6]: 616000 M⁻¹ s⁻¹
Kd [7]: 7.73 nM
Kd [8]: 6.65 nM
Kd [9]: 5.62 nM
koff [9]: 0.00214 s⁻¹
kon [9]: 381000 M⁻¹ s⁻¹
Kd [10]: 8.39 nM
EC50 (read off the curve) [11]: ~0.6 nM
Kd [12]: 8.15 nM
Kd [13]: 7.82 nM
Kd [14]: 11.6 nM
B1: single-arm antibody M701-3973 (antibody, human IgG1, kappa, L234A L235A)
heavy: ELQLQESGPGLVKPSETLSLTCAVSGVSFSDYHWAWIRQPPGKGLEWIGDINHRGHTNYNPSLKSRVTVSIDTSKNQFSLKLSSVTAADTAVYFCARDFPNFIFDFWGQGTLVTVSSASTKGPSVFPLAPSSKSTSGGTAALGCLVKDYFPEPVTVSWNSGALTSGVHTFPAVLQSSGLYSLSSVVTVPSSSLGTQTYICNVNHKPSNTKVDKKVEPKSCDKTHTCPPCPAPEAAGGPSVFLFPPKPKDTLMISRTPEVTCVVVDVSHEDPEVKFNWYVDGVEVHNAKTKPREEQYNSTYRVVSVLTVLHQDWLNGKEYKCKVSNKALGAPIEKTISKAKGQPREPQVYTLPPCREEMTKNQVSLWCLVKGFYPSDIAVEWESNGQPENNYKTTPPVLDSDGSFFLYSKLTVDKSRWQQGNVFSCSVMHEALHNHYTQKSLSLSPG
light: not shown
chain: DKTHTCPPCPAPEAAGGPSVFLFPPKPKDTLMISRTPEVTCVVVDVSHEDPEVKFNWYVDGVEVHNAKTKPREEQYNSTYRVVSVLTVLHQDWLNGKEYKCKVSNKALGAPIEKTISKAKGQPREPQVCTLPPSREEMTKNQVSLSCAVKGFYPSDIAVEWESNGQPENNYKTTPPVLDSDGSFFLVSKLTVDKSRWQQGNVFSCSVMHEALHNHYTQKSLSLSPG
